The values that follow come from PMC7967050 (2021).

For this assay, the target named is Recombinant human CD38 extracellular domain (amino acids 43–300, hCD38-ECD) (human, UniProt P28907 43-300, biotin (EZ-Link NHS-PEG4-biotin) for panning and for capture on the SA biosensor; not said for the cross-linking). As to the kind of experiment: BLI.

B1: anti-CD38 scFv antibody RP02 (scFv, V domains shown)
VH: PAQLVESGPGLVKPSGTLSLTCAVSGGSISSSNWWSWVRQPPGKGLEWIGEIYHSGSTNYNPSLKSRVTISVDKSKNQFSLKLSSVTAADTAVYYCAREDYYYYMDVWGKGTTVTVQS
VL: QSVLTQPPSVSAAPGQKVTISCSGSSSNIGNNYVSWYQQLPGTAPKLLIYDNNKRPSGIPDRFSGSKSGTSATLGITGLQTGDEADYYCGTWDSSLSAGVFGGGTKLTVL
As to B1, the koff amounted to 0.0034 s⁻¹.

B2: high-affinity anti-CD38 antibody 028 (scFv) (scFv, V domains shown)
VH: QVQLVQSGAEVKKPGSSVKVSCKAFGGTFSSYAISWVRQAPGQGLEWMGRIIRFLGIANYAQKFQGRVTLIADKSTNTAYMELSSLRSEDTAVYYCAGEPGERDPDAVDIWGQGTMVTVSS
VL: DIQMTQSPSSLSASVGDRVTITCRASQGIRSWLAWYQQKPEKAPKSLIYAASSLQSGVPSRFSGSGSGTDFTLTISSLQPEDFATYYCQQYNSYPLTFGGGTKVEIK
Turning to B2, the koff was found to be 0.00012 s⁻¹.
